# According to the supplement of paper PMC9170038:
# Tested on: K4 kissing-loop RNA reporter
# Experiment: apparent KD of K4 kissing-loop reporter; higher = weaker reporter binding
# Conditions: Eterna round: R107; input ligand: theophylline 20 uM
# Procedure: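 RNA-MaP round R107: designed RNA switches with theophylline, tryptophan, arginine or FMN aptamers are transcribed on-chip within common flanks. They are titrated with a labelled K4 kissing-loop RNA reporter in RNA-MaP buffer (100 mM Tris pH 7.5, 80 mM KCl, 4 mM MgCl2), without ligand or with the indicated ligand. Median apparent KD per design.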
# 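Note: bound reporter read as fluorescence of individual clusters on recovered sequencing chips by microscopy, with normalized cluster intensities fitted with a binding model.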
row,Sequence,apparent KD of K4 kissing-loop reporter [nM]
1,AGGUCAGCAGGAAGGAGCGCCCUGACAGGUUGCUGCCGUGGGCAGUGAUGUUGCUCAGUCCGGCAGGUAGGUCGCCUGCUGACCU,188
2,CGCCGUAAGGCGAGCGCUCCCACUCCGGAAGGAGCGCCCGGAAGGGCAGGUAGGUCGCCGGAGUGAUGUUCCGGUGGAGGGCUCG [#2 Exclusion - Arginine A Attempt #12 (Inspired by Omei)],221
3,AGUCCACUCUAAAGAGUGGACCUAAGGGAUACCAGUGAUGUUGGUCACCCUUGGCAGCCCACUGUCAUCGAUAAAGAUGGCAGGA,119
4,AAAAUAAAGCAGUCAAUCGGAGUGAUGUUCCGAGGACCGGUACGGCCGCCACUCGAGAGUCCAAAGGACUCAUGGCGAGACUGCA [#SwitchBubble 17 #K4Early],92.6
5,ACGAUUUACAGAAGGAGCGUGUAUUUAACUACAAUUAUCUUAGCGAGUGAUGUUCGUUUUACACAGGUAGGUCGCUGUAUAUCGA [JR_ExcArginiB_Sub011],374
6,UGUACCGAGUUAGGAUAUGUCGUCGAAAGACGAAAUGGAGUGAUGUUCCUUAAACUGCGAAAGCAGACAGAAGGAACUUGGUACU [FmnBS 29 U11+A75],546
7,GAUGUCUAGAGAUCAUCUAGACACCUAGAUACCAGCAGAUAUAUCUGCCCUUGGCAGCUAGAACCAGUGAUGUUGGUAUAUGCUC [Theo A SS t3],360
8,AGUGUUAGGUUAGAUACCAGCCGUCUGUGGAUAAUCCUCAGACCGCCAGUGAUGUUGGCAGGCCCUUGGCAGCUAACAGGACAGA [Mavebius],155
9,UUUGGUUUCUCGGCCGCCACUCGUUGGUUAUGGGCCUCAGGGAUAUAGUGAUGUUAUGUAAAGAAGAGGACCGGGAGAAGGAAGG [ExTryptoB.Do],283
10,CUAGGCCCUCGGCGGGACAUUGCGUGGGAAGGAGCGCAGAUAACUGCAGGUAGGUCGCCCAGUGAUGUUGGGCGAAUAUUGGUCA [Esinabige],120
11,AAAUAGAUCAGUCACCCAGUGAUGUUGGAAGGAGCGUGCGAAAGCACAGGUAGGUCGCCAAAAUAAAAUUGGCUGAUCAAAAUAA,485

# Same assay, conditions: Eterna round: R107; input ligand: tryptophan 2.4 mM
row,Sequence,apparent KD of K4 kissing-loop reporter [nM]
1,CUGGUUCAGUGAUGUUGGAAGGUUUAGGUGAAGGAUAUAUUGCAUAAUAGAAGGUCACGGCCAUGCAAUUAUUAACGUAGCCUGU [theeternabot_exclusion_KL_FMN_A_3],158
2,GAGCCAGAAGUUGCUGCGGGUUUCAGAGAUACCAGCCGUAUUGUAGGCCCUUGGCAGCUCGAGUGAUGUUCGAGCCGCUUCUAGC [Inma],114
3,UGUAAGCGCGUAGAUACCAGCAAACAAAGAGUGAUGUUCAGAUUAAGGAAAAGAAAGUAAUGCCCUUGGCAGCUAAUCAUAAGCG [Theophylline B Exclusion; Euphoria Solution],319
4,AUGUAUGAAUUAGGAUAUCGUUAGCCUUUCAUAUAUAUGAUAAAUGGAUAUGUCGUAGUGAUGUUACGAGAAGGAGUGUGGAGUA [KL-XFMN-B8],30.5
5,AAGUCACAGGCAGGAUAUGCUUAGUAUUAAGGCCAUAUAUACGUAUAGAGUGAUGUUUUGUACCAGGCAGAAGGGCUACAUCCGU [FMN B Excl V4 (+U)],463
6,GCAGUGAUGUUGCAACCGCGUACGAUGCCUCGAGGACCGGUACGGCCGCCACUCGUCCUGGUUCAGGAGCUACAGACAUAGCUCA [theeternabot_sameState_KL_Trp_A_2],291
7,GUGCAAAGCACCGGCACGAGCAGCCUAAAGGAGGAUAUGACGAAAGUCAGAAGGUCUAGUGAUGUUAGGCCUUGCUUGAGUCGAA [Omei KL FMN A Exc B v3],327
8,AAAUUUUCAAGUGAUACCAGACAUCUCUAUUACAUUAAUAUAGCUAAGUGAUGUUUAGCAGUCCCUUGGCAGCACAAUUUAAUUA [JR_SSTheophyB_Sub013],215
9,GUGCGGCUAGUGAUGUUGGUUGUGUGGGAAGGAGCGCAGAUACAUGCAGGUAGGUCGCCCACACCUCUGAAAGGAGGCUAAUUCA [KL-SSArg-A15],350
10,UGGAUAUAGUGAUGUUAUAUAGAGAUGGAUACCAGUUUAGAGAAGAGCCCUUGGCAGCCGAAAGAAGUAUCAUUAGAGAAGAAUG [ExTheophyl.Al],179
11,UUUAUAAGGUCGGCCGCCACUGGAUUUAUGUUUGUUUCGUCUGGAUCAAAGUGAUGUUUUGAGUCCAGGACCGGGACAUUUGUUA [whbob_Ex_Tryp_B_w39],90.5
12,CCGACUGCAGGAAGGAGCGGCGGUUGGAGUGAUGUUCCGGGUAGUGAUGUUACCAAACUCCGCCAGGUAGGUCGCCUGUUGCUCG [Same State Arginine B GF10],144
13,GAUUUAGAGGCGGCCGCCACUAGUGAUGUUAGUGAUGUUUGAUACUGAAUAUAUCGGCGUGUAGAUAGGACCGGGCCAGAUGGAG [zwqqmullin],203
14,GUUACGCAUGGAAGGAGCGCACUCCGGUUGAUCGACACAGUGAUGUUGUGGUUCAUUCGAAUGCAGGUAGGUCGCCAUGUGUAAC [Ex Arginine B K4 15],804
15,AAGCAGUCACUCAAAGCCAUCGAAGAUGGUCGAGGACCGGUACGGCCGCCACUCGGAGUGAUGUUCCGAAGACUGCAAAAUAAAA,346
16,GGGUGGCAGGCGGCCGCCACUCUGAGGGUCCACAGUGAUGUUGUGGGCGCGUAAGCGUCUUCAUAGAGGACCGGGUUUGUUGUUC [Same State Tryptophan B GF 24],338
